Experimental findings from US20250197496A1 (EVOLVELMMUNE THERAPEUTICS, published 2025) are described below.

The target of experiment [1] is T1, Human ULBP2 (recombinant) (human, UniProt Q9BZM5 26-217).
T1 construct: bought (R&D Systems) as ULBP2-Fc or ULBP2-His; also called recombinant ULBP2
T1 sequence: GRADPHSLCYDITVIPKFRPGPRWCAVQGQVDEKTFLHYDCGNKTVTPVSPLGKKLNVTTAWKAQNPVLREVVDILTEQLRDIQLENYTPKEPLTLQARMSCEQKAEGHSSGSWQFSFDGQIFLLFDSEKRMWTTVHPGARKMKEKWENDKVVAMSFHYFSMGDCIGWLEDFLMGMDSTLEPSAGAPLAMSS
Put plainly: BLI, antibody on AHC sensor. (Biolayer interferometry detects binding as a change in optical thickness at a sensor tip.)
Procedure: (§1) Bio-layer interferometry (BLI) was performed on the Octet RED384 (Sartorius). […] Subsequently, dissociation was measured over 600 seconds. The kinetic and affinity constants are determined by fitting the data to a 1:1 binding model using the Octet analysis software.

In another experiment the target is T2, Human ULBP5-His (human, UniProt Q6H3X3 26-223, limits assumed).
T2 construct: bought (R&D Systems), His tag; also called RAET1G
T2 sequence: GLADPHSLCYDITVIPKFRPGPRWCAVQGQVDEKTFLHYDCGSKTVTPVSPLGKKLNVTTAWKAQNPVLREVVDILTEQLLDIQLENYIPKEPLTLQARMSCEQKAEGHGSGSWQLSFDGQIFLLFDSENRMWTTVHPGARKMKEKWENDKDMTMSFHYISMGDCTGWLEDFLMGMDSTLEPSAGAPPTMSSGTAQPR
Put plainly: BLI, antibody on AHC sensor.

For another experiment, the target named is T3, Human ULBP6-His (human, UniProt Q5VY80 26-218, limits assumed).
T3 construct: bought (R&D Systems), His tag; also called RAET1L
T3 sequence: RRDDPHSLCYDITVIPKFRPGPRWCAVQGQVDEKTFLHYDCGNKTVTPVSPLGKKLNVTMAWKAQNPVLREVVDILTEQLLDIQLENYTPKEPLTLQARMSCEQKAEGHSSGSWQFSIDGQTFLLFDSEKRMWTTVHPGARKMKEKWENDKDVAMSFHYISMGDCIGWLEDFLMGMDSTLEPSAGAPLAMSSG
Put plainly: BLI, antibody on AHC sensor.

Experiment [2] concerns the target T4, human ULBP2 (26-216) L110A on yeast (human, UniProt Q9BZM5 26-216).
T4 construct: fused to V5 tag and Aga2
T4 chain: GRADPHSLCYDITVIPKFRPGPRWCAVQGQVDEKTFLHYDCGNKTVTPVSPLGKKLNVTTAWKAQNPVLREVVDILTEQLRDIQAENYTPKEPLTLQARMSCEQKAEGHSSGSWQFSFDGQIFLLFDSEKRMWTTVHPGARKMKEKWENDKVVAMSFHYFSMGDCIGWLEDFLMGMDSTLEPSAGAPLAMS
Put plainly: yeast display FACS, 1 nM.

For experiment [3], the target named is T5, human ULBP2 (26-216) D99A on yeast (human, UniProt Q9BZM5 26-216).
T5 construct: fused to V5 tag and Aga2
T5 chain: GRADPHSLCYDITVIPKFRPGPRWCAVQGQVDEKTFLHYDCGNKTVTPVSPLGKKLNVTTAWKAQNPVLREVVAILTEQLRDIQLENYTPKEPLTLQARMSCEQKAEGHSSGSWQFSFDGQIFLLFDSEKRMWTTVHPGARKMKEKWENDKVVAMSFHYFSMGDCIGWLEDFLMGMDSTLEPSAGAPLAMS
Put plainly: yeast display FACS, 1 nM.

The target of experiment [4] is T6, human ULBP2 (26-216) P115A on yeast (human, UniProt Q9BZM5 26-216).
T6 construct: fused to V5 tag and Aga2
T6 chain: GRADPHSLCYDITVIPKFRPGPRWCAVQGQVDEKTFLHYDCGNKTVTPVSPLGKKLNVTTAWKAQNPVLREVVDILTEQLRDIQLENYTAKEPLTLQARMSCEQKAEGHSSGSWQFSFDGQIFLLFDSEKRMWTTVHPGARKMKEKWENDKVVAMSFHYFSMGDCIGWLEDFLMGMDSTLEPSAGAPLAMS
Put plainly: yeast display FACS, 1 nM.

The target in experiment [5] is T7, human ULBP2 (26-216) E111A on yeast (human, UniProt Q9BZM5 26-216).
T7 construct: fused to V5 tag and Aga2
T7 chain: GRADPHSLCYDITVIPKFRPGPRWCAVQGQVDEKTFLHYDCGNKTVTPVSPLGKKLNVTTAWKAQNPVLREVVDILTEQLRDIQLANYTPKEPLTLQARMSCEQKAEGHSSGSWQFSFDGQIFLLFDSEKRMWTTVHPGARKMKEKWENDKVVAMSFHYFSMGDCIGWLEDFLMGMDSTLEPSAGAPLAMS
Put plainly: yeast display FACS, 1 nM.

Experiment [6] addresses T1, Human ULBP2 (recombinant). Put plainly: SPR, biotinylated antigen on SA chip. (SPR reads the build-up and loss of mass on a sensor chip optically.)
Procedure: Surface plasmon resonance (SPR) was performed on the Biacore 8K+ (Cytiva). Biotin labelled proteins were captured using the Sensor chip SA (Cytiva). […] The association contact and dissociation time are 60-120 seconds and 120-420 seconds respectively. The chip surface is regenerated by injecting 10 mM glycine, pH 1.5, at a flow rate of 30 μL/min for 60 seconds. The kinetic and affinity constants are determined by fitting the data to a 1:1 binding model using the Biacore insight evaluation software.
In experiment [7] the target is T8, human ULBP2 (26-216) displayed on yeast (human, UniProt Q9BZM5 26-216).
T8 construct: also called Wild type; wild-type ULBP2
T8 sequence: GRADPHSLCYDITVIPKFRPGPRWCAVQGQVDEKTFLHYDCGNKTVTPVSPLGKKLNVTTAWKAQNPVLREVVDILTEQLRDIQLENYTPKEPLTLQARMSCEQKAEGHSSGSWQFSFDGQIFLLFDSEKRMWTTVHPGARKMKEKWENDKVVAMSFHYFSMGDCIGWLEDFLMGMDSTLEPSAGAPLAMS
Put plainly: flow cytometry on yeast displaying ULBP2; unstained control 385. In general terms: Flow cytometry measures light scatter and fluorescence of single cells or particles in a stream.

Experiment [8] has as its target T9, human ULBP2 (26-216) R106L displayed on yeast (human, UniProt Q9BZM5 26-216).
T9 construct: also called Human ULBP2 R106L; ULBP2 R106L
T9 chain: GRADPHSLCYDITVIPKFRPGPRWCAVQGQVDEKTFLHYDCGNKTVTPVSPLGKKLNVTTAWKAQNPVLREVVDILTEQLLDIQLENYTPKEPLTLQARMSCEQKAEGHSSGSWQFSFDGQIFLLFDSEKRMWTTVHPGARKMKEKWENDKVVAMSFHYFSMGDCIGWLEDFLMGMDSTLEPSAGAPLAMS
The experiment is described as above.

Procedure for Human ULBP5-His: as §1
Procedure for Human ULBP6-His: as §1

B1: A06 (antibody, V domains shown)
VH: EVQLVQSGAEVKKPGESLKISCKGSGYAFSTSWMNWVRQMPGKGLEWMGRIYPGDGDTNYNGNFKGQVTISADKSISTAYLQWSSLKASDTAMYYCARGGELRLEAMDSWGQGTLVTVSS
VL: EIVMTQSPATLSLSPGERITLSCSASSSIHSNYLHWYQQKPGQAPRLLIYRTSNLASGIPARFSGSGSGTDFTLTISSLQPEDFAVYYCQQGFSIPFTFGQGTKLEIK
notes: humanized; also called humanized ULBP2 antibody A06; anti-ULBP2 antibody
B1: the Kd in [1] was found to be 0.532 nM; in experiment [6] it was 0.162 nM. The binding result with Human ULBP5-His and with Human ULBP6-His was “no binding (tested: 250 nM (highest concentration tested))” each time. Further, the “Gate 1 Freq. of Total” value in experiment [2] stood at 0.065%; in experiment [3], 22.9%; in experiment [4], 64.5%; in experiment [5], 18.5%. Further, the “Gate 2 Freq. of Total” value in [2] is 0.56%; in experiment [3], 35.2%; in experiment [4] it was 0.35%; in experiment [5], 56.1%. In addition, the “Gate 3 Freq. of Total” value in [2] is 21.9%; in experiment [3], 8.32%; in experiment [4], 0.00694%; in experiment [5] it was 0.87%. Further, the koff in experiment [6] amounted to 0.000214 s⁻¹. The kon in experiment [6] came to 1.32e+06 M⁻¹ s⁻¹. In addition, the MFI turned out to be 8030 in experiment [7] and 828 in experiment [8].

B2: E12 (antibody, V domains shown)
VH: QVQLVQSGAEVKKPGASVKVSCKASGYTFTNYDINWVRQAPGQGLEWMGWIYPGDGSTYYNEKFKGRVTMTRDTSTSTVYMELSSLRSEDTAVYYCARSGDYGLYYFDYWGQGTLVTVSS
VL: EIVLTQSPATLSLSPGERATLSCRASQSIGTSIHWYQQKPGQAPRLLIYFASESISGIPARFSGSGSGTDFTLTISSLEPEDFAVYYCQQSNSWPLYTFGGGTKVEIK
notes: humanized; also called humanized ULBP2 antibody E12; anti-ULBP2/5/6 antibody
With B2, the Kd came out at 0.198 nM in [1], 0.345 nM with Human ULBP5-His, 0.456 nM with Human ULBP6-His and 0.22 nM in experiment [6]. The dissociation rate constant (koff) in [6] stood at 0.000211 s⁻¹. The kon in experiment [6] is 957000 M⁻¹ s⁻¹. Also, the MFI was determined as 5180 in experiment [7] and 9160 in [8].

The term Kd denotes the equilibrium constant for the complex coming apart. A word on the koff: it is the rate constant with which the complex falls apart. For orientation: kon means a measure of how fast the partners come together.
